Results published in patent publication US20220177587A1, “METHODS AND USES OF VARIANT CD80 FUSION PROTEINS AND RELATED CONSTRUCTS” (Alpine Immune Sciences, Inc., priority 2018, published 2022).

Columns and labels:
CD28 [1] = target: T1, CD28 (Homo sapiens, UniProt P10747); assay: Flow binding to Jurkat/IL2 reporter cells (CD28); design: host or cells: Jurkat cells expressing an IL-2-luciferase reporter; details: Table E19; for CD28 MFI at 33.3 nM: Jurkats (CD28); for CD28 Fold change to WT CD80: MFI at 33.3 nM relative to WT CD80 ECD-Fc (Abcam)
Procedure, shortened: (§1)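 Binding EC50 and PE mean fluorescence intensity derived by flow cytometry using PE-labelled anti-human Fc secondary. Target cells were CTLA4- or PD-L1-transfected CHO lines and CD28-expressing Jurkat/IL2 reporter cells, stained with fusion proteins on ice for 45 min following BSA blocking.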

CD28 [2] = target: T1, CD28; assay: Jurkat/IL2 + CHO/OKT3 +/- PD-L1 reporter assay: PD-L1-dependent CD28 costimulation; assay type: cell-based; design: host or cells: Jurkat cells expressing an IL-2-luciferase reporter; details: Table E21, Jurkat/IL2 + CHO/OKT3/PD-L1; for Fold Increase over WT CD80-IgV-Fe: 5.0 nM
Procedure, shortened: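 Readout is relative luminescence from lysed cocultures: test protein given 15 min at room temperature to Jurkat cells before adding CHO artificial APCs displaying OKT3 alone or OKT3 plus PD-L1, then 5 h at 37 °C, 5% CO2.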

huCTLA4 = huCTLA4 (Homo sapiens, UniProt P16410); assay: Flow binding to CHO cells stably expressing CTLA4; design: huCTLA4 and huPD-L1, full-length mammalian surface expression constructs were generated; expressed in transfected cells; host or cells: CHO cells, lentiviral transduction, sorted to >98% purity; details: Table E19; for CTLA4 MFI at 33.3 nM: CHO cells stably expressing CTLA4; for CTLA4 Fold change to WT CD80: MFI at 33.3 nM relative to WT CD80 ECD-Fc (Abcam)
Chain of huCTLA4 (P16410 36-223): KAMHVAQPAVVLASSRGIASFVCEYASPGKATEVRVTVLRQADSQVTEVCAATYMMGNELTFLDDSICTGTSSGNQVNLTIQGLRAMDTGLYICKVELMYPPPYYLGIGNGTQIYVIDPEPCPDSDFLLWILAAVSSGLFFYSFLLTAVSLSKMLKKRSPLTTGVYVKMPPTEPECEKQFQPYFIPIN
Procedure, shortened: as §1

huPD-L1 = huPD-L1 (Homo sapiens, UniProt Q9NZQ7); assay: Flow binding to CHO cells stably expressing PD-L1; design: huCTLA4 and huPD-L1, full-length mammalian surface expression constructs were generated; expressed in transfected cells; host or cells: CHO cells, lentiviral transduction, sorted to >98% purity; details: Table E19; for PD-L1 MFI at 33.3 nM: CHO cells stably expressing PD-L1; for PD-L1 Fold change to WT CD80: MFI at 33.3 nM relative to WT CD80 ECD-Fc (Abcam); for Ratio of PDL1:CD28: ratio of MFI at 33.3 nM
Chain of huPD-L1 (Q9NZQ7 19-290): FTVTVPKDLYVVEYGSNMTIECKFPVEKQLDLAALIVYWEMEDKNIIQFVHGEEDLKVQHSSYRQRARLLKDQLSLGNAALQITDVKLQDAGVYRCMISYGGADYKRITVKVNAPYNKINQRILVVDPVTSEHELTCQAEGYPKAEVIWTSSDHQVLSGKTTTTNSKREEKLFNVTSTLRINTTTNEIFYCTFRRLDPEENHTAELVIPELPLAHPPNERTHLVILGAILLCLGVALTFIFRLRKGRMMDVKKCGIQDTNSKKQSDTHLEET
Procedure, shortened: as §1

Row | Molecule | CD28 MFI at 33.3 nM (CD28 [1]) | CD28 Fold change to WT CD80 (CD28 [1]) [fold] | Fold Increase over WT CD80-IgV-Fe (CD28 [2]) [fold] | Relative Luciferase Units (RLU), CD80 Conc 5.0 nM (CD28 [2]) [RLU] | CTLA4 MFI at 33.3 nM (huCTLA4) | CTLA4 Fold change to WT CD80 (huCTLA4) [fold] | PD-L1 MFI at 33.3 nM (huPD-L1) | PD-L1 Fold change to WT CD80 (huPD-L1) [fold] | Ratio of PDL1:CD28 (huPD-L1)
1 | M47L (protein) VIHVTKEVKEVATLSCGHNVSVEELAQTRIYWQKEKKMVLTMMSGDLNIWPEYKNRTIFDITNNLSIVILALRPSDEGTYECVVLKYEKDAFKREHLAEVTLSVKAD | 309 | 0.4 | 4.6 | 530 | 30774 | 0.8 | 1895 | 14.8 | 6.1
2 | E35D/D46V/M47L/V68M/L85Q (protein) VIHVTKEVKEVATLSCGHNVSVEELAQTRIYWQKDKKMVLTMMSGVLNIWPEYKNRTIFDITNNLSIMILALRPSDEGTYECVVQKYEKDAFKREHLAEVTLSVKAD | 464 | 0.7 | 6.2 | 712 | 26207 | 0.6 | 28418 | 222.0 | 61.2
3 | D46V/L85Q (protein) VIHVTKEVKEVATLSCGHNVSVEELAQTRIYWQKEKKMVLTMMSGVMNIWPEYKNRTIFDITNNLSIVILALRPSDEGTYECVVQKYEKDAFKREHLAEVTLSVKAD | 131 | 0.2 | 3.0 | 342 | 41896 | 1.0 | 2197 | 17.2 | 16.8
4 | M47V (protein) VIHVTKEVKEVATLSCGHNVSVEELAQTRIYWQKEKKMVLTMMSGDVNIWPEYKNRTIFDITNNLSIVILALRPSDEGTYECVVLKYEKDAFKREHLAEVTLSVKAD | 68.7 | 0.1 | 3.9 | 445 | 33341 | 0.8 | 2317 | 18.1 | 33.7
5 | E35D/D46V/M47L/L85Q (protein) VIHVTKEVKEVATLSCGHNVSVEELAQTRIYWQKDKKMVLTMMSGVLNIWPEYKNRTIFDITNNLSIVILALRPSDEGTYECVVQKYEKDAFKREHLAEVTLSVKAD | 268 | 0.4 | 4.2 | 481 | 38150 | 0.9 | 7523 | 58.8 | 28.1
6 | K89N (protein) VIHVTKEVKEVATLSCGHNVSVEELAQTRIYWQKEKKMVLTMMSGDMNIWPEYKNRTIFDITNNLSIVILALRPSDEGTYECVVLKYENDAFKREHLAEVTLSVKAD | 56.3 | 0.1 | 1.0 | 116 | 944 | 0.0 | 52.8 | 0.4 | 0.9
7 | D46V/M47L/V68M (protein) VIHVTKEVKEVATLSCGHNVSVEELAQTRIYWQKEKKMVLTMMSGVLNIWPEYKNRTIFDITNNLSIMILALRPSDEGTYECVVLKYEKDAFKREHLAEVTLSVKAD | 2183 | 3.1 | 6.3 | 724 | 34688 | 0.9 | 28020 | 218.9 | 12.8
8 | D46V/V68M (protein) VIHVTKEVKEVATLSCGHNVSVEELAQTRIYWQKEKKMVLTMMSGVMNIWPEYKNRTIFDITNNLSIMILALRPSDEGTYECVVLKYEKDAFKREHLAEVTLSVKAD | 556 | 0.8 | 2.5 | 292 | 5334 | 0.1 | 2271 | 17.7 | 4.1
9 | E35D/V68M/L85Q (protein) VIHVTKEVKEVATLSCGHNVSVEELAQTRIYWQKDKKMVLTMMSGDMNIWPEYKNRTIFDITNNLSIMILALRPSDEGTYECVVQKYEKDAFKREHLAEVTLSVKAD | 76.2 | 0.1 | 4.4 | 511 | 42761 | 1.1 | 5971 | 46.6 | 78.4
10 | D46V/M47L/L85Q (protein) VIHVTKEVKEVATLSCGHNVSVEELAQTRIYWQKEKKMVLTMMSGVLNIWPEYKNRTIFDITNNLSIVILALRPSDEGTYECVVQKYEKDAFKREHLAEVTLSVKAD | 567 | 0.8 | 5.2 | 598 | 40153 | 1.0 | 5976 | 46.7 | 10.5
11 | E35D/M47L/V68M (protein) VIHVTKEVKEVATLSCGHNVSVEELAQTRIYWQKDKKMVLTMMSGDLNIWPEYKNRTIFDITNNLSIMILALRPSDEGTYECVVLKYEKDAFKREHLAEVTLSVKAD | 1243 | 1.8 | 6.5 | 749 | 28603 | 0.7 | 27896 | 217.9 | 22.4
